{
  "source": "the nanobody polyreactivity screen of Harvey et al. (2022)",
  "data": [
    {"assay": "yeast display, Sf9 membrane polyspecificity reagent, FACS + sequencing; frameworks hold sequencing errors", "method_in_brief": "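After 36–48 hours of galactose induction, yeast (Saccharomyces cerevisiae BJ5465) displaying a synthetic nanobody library were stained at 4 °C for 1 hour with 10% biotinylated, detergent-solubilized Sf9 membrane reagent. Streptavidin microbeads enriched the stained cells before FACS sorting into low and high (top ~1%) gates on anti-HA and streptavidin fluorescence. Each clone's polyreactivity label reflects its gate of origin.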", "values": [
      {"sequence": "QVQLVESGGGLVQAGGSLRLSCAASGITFWHNTMGWYRQAPGKERELVAAISWTGGRTYYADSVKGRFTISRDNAKNSVYLQMNSLKPEDTPVYYCAADFSWTPSGNYDSWGQGTQVTVSS", "polyreactivity (PSR sort gate)": "low polyreactivity"},
      {"sequence": "QVQLVESGGGLVQAGGSLRLSCAASGITFWVYAMGWYRQAPGKERELVAAISRRGGSTSYADSVKGRFTISRDNAKNTVYLQMNSLKPEDTAVYYCAATTYTHPYGYWGQGTQVTVSS", "polyreactivity (PSR sort gate)": "high polyreactivity"},
      {"sequence": "QVQLVESGGGLVQAGGSLRLSCAASGITFWYYAMGWYRQAPGKERELVAAITGGDSTNYADSVKGRFTISRDNAKNTVYLQMNSLKPEDTAVYYCNAEGSYEGYDDYWGQGTQVTVSS", "polyreactivity (PSR sort gate)": "high polyreactivity"},
      {"sequence": "QVQLVESGGGLVQAGGSLRLSCAASGITFWYYAMGWYRQAPGKERELVAVISRGGSTYYADSVKGRFTISRDNAKNTVYLQLNSLKPEDTAVYYCAARPRWYTYTRQEYDYWGQGTQVTVSS", "polyreactivity (PSR sort gate)": "high polyreactivity"},
      {"sequence": "QVQLVESGGGLVQAGGSLRLSCAASGITFWYYTMGWYRQAPGKERELVARITSGSRTSYADSVKGRFTISRDNAKNTVYLQMNSLKPEDTAVYYCAAGSYADRLWSKYNYWGQGTQVTVSS", "polyreactivity (PSR sort gate)": "high polyreactivity"},
      {"sequence": "QVQLVESGGGLVQAGGSLRLSCAASGITFYDNVMGWYRQAPGKERELVAAITSGGSTNYADSVKGRFTISRDNAKNTVYLQMNSLKPEDTAVYYCAAQTRVDYEFPYRYGYWGQGTQVTVSS", "polyreactivity (PSR sort gate)": "low polyreactivity"},
      {"sequence": "QVQLVESGGGLVQAGGSLRLSCAASGITFYDYAMGWSRQAPGKDRELVSAINSSGVRTYYADSVKGRFTISRDNAKNTVYLQMNSLKPEDTAVYYCAAERYYYFVPYWYDYWGQGTQVTVSS", "polyreactivity (PSR sort gate)": "high polyreactivity"},
      {"sequence": "QVQLVESGGGLVQAGGSLRLSCAASGITFYDYAMGWYRQAPGKERELVAVITRRGGSTYYADSVKGRFTISRDNAKNTVYIQMNSLKPEDTAVYYCAADWRVWSFVRGVDYWGQGTQVTVSS", "polyreactivity (PSR sort gate)": "high polyreactivity"},
      {"sequence": "QVQLVESGGGLVQAGGSLRLSCAASGITFYFNTMGWYRQAPGKERELVASISGGSSTYYADSVKGRFTISRDNAKYTVYLQMNSLKPEDTAVYYCNAQGSLFRGWFDYDYWGQGTQVTVSS", "polyreactivity (PSR sort gate)": "low polyreactivity"},
      {"sequence": "QVQLVESGGGLVQAGGSLRLSCAASGITFYGNAMGWYRQAPGKERELVAAITYSGTSTYYADSVKGRFTISRDNAKNTVYLQMNSLKPEDTAVYYCAADEWYLVDYWGQGTQVTVSS", "polyreactivity (PSR sort gate)": "low polyreactivity"},
      {"sequence": "QVQLVESGGGLVQAGGSLRLSCAASGITFYGNAMGWYRQAPGKERELVAGISSGGSTSYADSVKGRFTISRDNAKNTVYLQMNSLKPEDTAVYYCAKRWYYGTRYGTSYIRDYWGQGTQVTVSS", "polyreactivity (PSR sort gate)": "high polyreactivity"},
      {"sequence": "QVQLVESGGGLVQAGGSLRLSCAASGITFYGYAMGWYRQAPGKEREFVAAISASGGSTYYADSVKGRFTISRDNAKNTVYLQMNSLKPEDTAVYYCAALVRGAYGYGYWGQGTQVTVSS", "polyreactivity (PSR sort gate)": "high polyreactivity"},
      {"sequence": "QVQLVESGGGLVQAGGSLRLSCAASGITFYGYAMGWYRQAPGKERELVAAISSRGGSTYYADSVKGRFTISRDNAKNTVYLQMNRLKPEDTAVYYCAAVYYTGEYYYWGQGTQVTVSS", "polyreactivity (PSR sort gate)": "high polyreactivity"},
      {"sequence": "QVQLVESGGGLVQAGGSLRLSCAASGITFYGYAMGWYRQAPGKERELVAAITRGGSTNYADSVKGRFTISRDNAKITPYLQMNSLKPEDTAVYYCNTYVGRRPGYGYWGQGTQVTVSS", "polyreactivity (PSR sort gate)": "high polyreactivity"},
      {"sequence": "QVQLVESGGGLVQAGGSLRLSCAASGITFYGYAMGWYRQAPGKERELVAAITRGGSTNYADSVKGRFTISRDNAKNTVYLQMNSLKPEDTAVYYCAAEYSVYWYYRYEYWGQGTQVTVSS", "polyreactivity (PSR sort gate)": "high polyreactivity"},
      {"sequence": "QVQLVESGGGLVQAGGSLRLSCAASGITFYGYAMGWYRQAPGKERELVARITASGGSTYYADSVKGRFTISRDNAKNTVYLQMKSLKPEVTAVYYCAKDWYRYSRFDYWGQGTQVTVSS", "polyreactivity (PSR sort gate)": "high polyreactivity"},
      {"sequence": "QVQLVESGGGLVQAGGSLRLSCAASGITFYGYDKGWYRQAPGKERELGAAITSDGITNYADSVKGRFTISRDNAKNTVYLQMNSLKPEDTAVYYCAADLSFYRRYEWYYYWGQGTQVTVSS", "polyreactivity (PSR sort gate)": "low polyreactivity"},
      {"sequence": "QVQLVESGGGLVQAGGSLRLSCAASGITFYGYDMGWYRQAPAKERELVAAITSDGITNYADSVKGRFTISRDNAKNTVYLQMNSLKPEDTAVYYCNAVFRPGSFLYDWRAYDYWGQGTQVTVSS", "polyreactivity (PSR sort gate)": "low polyreactivity"},
      {"sequence": "QVQLVESGGGLVQAGGSLRLSCAASGITFYGYTMGWYRQAPGKERELVAAITSGGITYYADSVKGRFTISRDNAKNTVYLQMNSLKPEDTAVYYCNADDVWYEYDYWGEGTQVTVSS", "polyreactivity (PSR sort gate)": "high polyreactivity"},
      {"sequence": "QVQLVESGGGLVQAGGSLRLSCAASGITFYHYAMGWYRQAPGKERELVAAISSDDNTNYADSVKGRFTISRDNEKNTVYLQMNSLNPEVTAVYYCNKRSLKNEPRYDYWGQGTQVTVSS", "polyreactivity (PSR sort gate)": "high polyreactivity"},
      {"sequence": "QVQLVESGGGLVQAGGSLRLSCAASGITFYIYAMGWYRQAPGKERELVATISWSDGRTYYADSVKGRFTISRDNAKTTVYLQMNSLKPEDTAVYYCAADWWYYQFDYEYWGQGTQVTVSS", "polyreactivity (PSR sort gate)": "low polyreactivity"},
      {"sequence": "QVQLVESGGGLVQAGGSLRLSCAASGITFYPNDMGWYRQAPGKERELVAAITTNDGDTYYADSVKGRFTISRDKAKNTVYLQMNSLKPEDTAVYYCAAASGSTSEYEYWGQGTQVTVSS", "polyreactivity (PSR sort gate)": "low polyreactivity"},
      {"sequence": "QVQLVESGGGLVQAGGSLRLSCAASGITFYPYTMGWYRQAPGKERELVASISTSGTNYADSVKGRFTISRDNAKNTVYLQMNSLKPEDTAVYYCAADIWSYYRSTHVDSWGQGTQVTVSS", "polyreactivity (PSR sort gate)": "low polyreactivity"},
      {"sequence": "QVQLVESGGGLVQAGGSLRLSCAASGITFYRNAMGWYRQAPGKEREFVAAITSSGGSTYYADSVKGRFTISRDNAKNTVYLQMNSLKPEDTAVYYCRPGRWRVSHKYDYWGQGTQVTVSS", "polyreactivity (PSR sort gate)": "high polyreactivity"},
      {"sequence": "QVQLVESGGGLVQAGGSLRLSCAASGITFYRYAKGSYRQAPGKERELVAAIRRAGSTYYADSVKGRVTISRDNAKKTVYLQMNSLKPEDTAVYYCNARYGIGMNYWGQGTQVTVSS", "polyreactivity (PSR sort gate)": "high polyreactivity"},
      {"sequence": "QVQLVESGGGLVQAGGSLRLSCAASGITFYRYAMGWYRQAPGKERELVAAISTSGGTTYYADSVKERFTISRDNAKNTVYLQMNSLKPEDTAVYYCAAQYLRWSRMDYWGQGTQVTVSS", "polyreactivity (PSR sort gate)": "high polyreactivity"},
      {"sequence": "QVQLVESGGGLVQAGGSLRLSCAASGITFYRYAMGWYRQAPGKERELVAAITSSGGSTYYADSVKGRFTISRDNAKNTVYLQMNSLKPQDTAVYYCAARDLGRYPPKLYYWGQGTQVTVSS", "polyreactivity (PSR sort gate)": "high polyreactivity"},
      {"sequence": "QVQLVESGGGLVQAGGSLRLSCAASGITFYRYAMGWYRQAPGTEREVVATITSGGSTYYADSVKGRFTISRDNAKNTVYLQMNSLKPEDTAVYYCAAESVWTWYYTTAGMDYWGQGTQVTVSS", "polyreactivity (PSR sort gate)": "high polyreactivity"},
      {"sequence": "QVQLVESGGGLVQAGGSLRLSCAASGITFYRYMGWYRQAPGKERELVASITGRGGSTYYADSVKGRFTISRDNAKNTVYLQMNSLKPEDTAVYYCAARSYARPGGSRFDYWGQGTQVTVSS", "polyreactivity (PSR sort gate)": "high polyreactivity"},
      {"sequence": "QVQLVESGGGLVQAGGSLRLSCAASGITFYRYTMGWYRQAPGKERELVATITSGASTSYADSVKGRFTISRDNAKNTVYLQMNSLKPEDTAVYYCAARRTRVTGRYSVYAFDYWGQGTQVTVSS", "polyreactivity (PSR sort gate)": "low polyreactivity"},
      {"sequence": "QVQLVESGGGLVQAGGSLRLSCAASGITFYRYVMGWYRQAPGKERELVAAITTGDSTYYADSVKGRFTISRDNAKNTVYLQMNSLKPEDTAVYFCAAVYYTALANYDYWGQGTQVTVSS", "polyreactivity (PSR sort gate)": "low polyreactivity"},
      {"sequence": "QVQLVESGGGLVQAGGSLRLSCAASGITFYTNAMGWYRQAPGKERELVAGISSSSGSTYYADSVKGRFTISRDNAKNTVYLQMNSLKPEDTAVYYCAADQDSTASDYKEYGYWGQGTQVTVSS", "polyreactivity (PSR sort gate)": "low polyreactivity"},
      {"sequence": "QVQLVESGGGLVQAGGSLRLSCAASGITFYVKDMGWYRQAPGKEREFVAAISYRGGSTYYADSVKGRFTISRDNAKNTVYLQMNSLKPEDTAVYYCAADYNYWSPHRYDYWGQGTQVTVSW", "polyreactivity (PSR sort gate)": "low polyreactivity"},
      {"sequence": "QVQLVESGGGLVQAGGSLRLSCAASGITFYVYALGWYRQAPGKARALVAANNYDSGSTYYADSEKGRFTISRDNAKNTVYIQKNSLKPEDTAGYYCATDGVNPFYAYDYWGQGTQVTVSS", "polyreactivity (PSR sort gate)": "low polyreactivity"},
      {"sequence": "QVQLVESGGGLVQAGGSLRLSCAASGITFYVYTMGWDRQAPGKERELVAAITWSGGSTYYADSVKGRFTISRDNAKNTVYLQMKSLKPEDTAVYYCNRVGYWVGLDSWGQGTQVTVSS", "polyreactivity (PSR sort gate)": "high polyreactivity"},
      {"sequence": "QVQLVESGGGLVQAGGSLRLSCAASGITFYWYAMGWYRQAPGKERELVAAITRSVGSTYYADSVKGRFSISRDNAKNPVYLQMNSLKPEDTAVYYCAADFYYYGFDYWGQGTQVTVSS", "polyreactivity (PSR sort gate)": "low polyreactivity"},
      {"sequence": "QVQLVESGGGLVQAGGSLRLSCAASGITFYYNAMGWYRQAPGKERELVAAIRSAGSTYYADSVKGRFTISRDNAKNSVYVQMNSLKPEDTAVDYWGQGTQVTVSS", "polyreactivity (PSR sort gate)": "low polyreactivity"},
      {"sequence": "QVQLVESGGGLVQAGGSLRLSCAASGITFYYNAMGWYRQAPGKERELVADISARGGSTYYADSVKGRFTISRDNAKNTVYLQMNCLIPEDTAVYYCNTYPKKKRPNEYDYWGQGTQVSVSS", "polyreactivity (PSR sort gate)": "high polyreactivity"},
      {"sequence": "QVQLVESGGGLVQAGGSLRLSCAASGITFYYYAKGWYRQAPGKERELVSAISFRGGSTYYADSVKGRFTISRDNAKNSVYLQMNSLKPEDTAVYYCAAETSRSWYTWVSYDYWGQGTQVNVSS", "polyreactivity (PSR sort gate)": "high polyreactivity"},
      {"sequence": "QVQLVESGGGLVQAGGSLRLSCAASGITFYYYAMGWYRQAPGKERELVASISQSGGSTYYAASVKGRFSISRDNAKNTVYLQMNSLKPEDTAVYYCAADPGRYYPMYYWGQGTQVTVSS", "polyreactivity (PSR sort gate)": "low polyreactivity"},
      {"sequence": "QVQLVESGGGLVQAGGSLRLSCAASGITFYYYVMGWYRQAHGKERELVAAISNRGGSTYYADSVKGRFTISRDNAKNTVYLQMNSLKPDDTAVYYCAAYPLSGYDYWGQGTQVTVSS", "polyreactivity (PSR sort gate)": "high polyreactivity"},
      {"sequence": "QVQLVESGGGLVQAGGSLRLSCAASGITIARYAMGWYRQAPGKERELVAAITRSGGRTYYADSVKGRFTISRDNAKITVYLQMKSLKPEDTAVYYCYNVTRGKNHGTKYDYWGQGTQVTVSS", "polyreactivity (PSR sort gate)": "high polyreactivity"},
      {"sequence": "QVQLVESGGGLVQAGGSLRLSCAASGITIKYYTMGWYRQAPGKERELVAAISRSGGSTYYADSVKGRFTISRDNAKNTVYLQMNSLIPEDTAVYYCAAERGAYRGVTFTYGYWGQGTQVTVSS", "polyreactivity (PSR sort gate)": "high polyreactivity"}
    ]}
  ]
}
